Data published in patent US20080160035A1 (Regeneron, published 2008).
Numbering of substitutions follows the chain as printed.

B1: VAB 15C8-17 (antibody, V domains shown)
VH: QVQLVESGGGLVQPGGSLRLSCAVSGFTISDHYMSWIRQAPGKGLEWISYISSSGSKIYYADSVKGRFTISRDNAKNSLFLQMNSLRAEDTAVYYCARTRQLVGDYWGQGTLVTVSS
VL: DIQLTQSPSFLSASVGDRVTITCWASQGISSYLAWYQQKPGKAPKLLIFAASTLQSGVPSRFSGSGSGTEFTLTISSLQPEDFATYYCQQLNSYPLTFGGGTKVEIR
notes: Apparently tested with mouse constant region (anti-mouse IgG capture/detection)
B2: VAB 10G8-19 (antibody, V domains shown)
VH: QVQLVQSGAEVKKPGASVKVSCKASRYTFTSYDINWVRQATGQGLEWMGWMNPNSGNTGYAQKFQGRVTMTRNTSTSTAYMELSSLRSEDTAVYYCARVRRFFDYWGQGTLVTVSS
VL: B1 VL with S30I, F49Y, Q55H, Q89H, N92K, L96I, G100Q, K103R, V104L, R107K
notes: as for B1
B3: VAB 16G1-1 (antibody, V domains shown)
VH: EVKLAESGGGLVQPGGSLRLSCAASGFTFSSHWMNWVRQAPGKGLEWVANIKQDGSDKYYVDSVKGRFTISRDNAKNSLYLQLNSLIAEDTAVYYCARDRGVRPPRGAFDIWGQGTMVTVSS
VL: DIQMTQSPSSVSASVGDRVTITCRASQGISSWLAWYQQKPGKAPKLLIYAASSFQSGVPSRFSGSGSGTDFTLTISSLQPEDFATYFCQQANSFPLTFGGGTTVEIK
notes: 403/405; 407/409 without saying which was assayed; Apparently tested with mouse constant region (anti-mouse IgG capture/detection)
B4: VX 3F7-6 (antibody, V domains shown)
VH: EVQLVESGGGLVQPGGSLRLSCAASGFTFSSFWMTWVRQAPGKGLEWVANIKQDGSEKYYVDSVKGRFTISRDNAKNSLYLQMNSLRAEDTAVYYCARDPGRTMVRGGIRYYYGMDVWGQGTTVTVSS
VL: B3 VL with T22S, I29V, K42N, Y49S, F54I, F87Y, T103K
notes: 395/397; 399/401 without saying which was assayed; Apparently tested with mouse constant region (anti-mouse IgG capture/detection)
B5: VAB 16F3-1 (antibody, V domains shown)
VH: QVQLVQSGAEVKKPGASVKVSCKASGYTFNSYGISWVRQAPGQGLEWMGWIRTYNGNTNYAQKLQGRVTMTTDTSTSTAYMELRSLRSDDTAVYYCARDEARIVVAGTTPYYYGMDVWGQGTTVTVSS
VL: DIQMTQSPSSVSASVGDRVTITCRASQDISIWLAWYQQSPGKAPKLLINVASRLQSGVPSRFSGSGSGTDFTLTINSLQPEDFVTYYCQQANSFPITFGQGTRLATK
notes: as for B1
B6: VAK8G11-13 (antibody, V domains shown)
VH: QVRLVESGGGVVQPGGSLRLSCAASGFIFRSYGMHWVRQAPGRGLEWVAVISYDGSKTFYVDSVKVRFTISRDNSKNTLYLEMNSLRVDDTAVYFCVKEGRSGSWFDPWGQGTLVAVSS
VL: DIHMTQSPSSLSASVGDRVTITCRASQAINNFLAWFQQKPGKTPKSLIFATSSLQSGVPSRFSGSGSGTDFTLTISSLQPEDFATYYCQQYNSHPWTFGQGTKVEIK
notes: as for B1
B7: VAB 10C1-5 (antibody, V domains shown)
VH: QVQLVETGGDLVRPGGSLRLSCTASGFTLSDYYMSWIRQAPGKGLEWVSYIRRSGNTIYYADSVKGRFTISRDNAKNSLYLQMNSLRAEDTAVYYCARGGDWADVWGQGTTVTVSS
VL: DIQMTQSPSSLSASVGDRVTITCRASQGISIYLAWFQQKPGKAPKSLIYAASSLQRGVPSKFSGSGSGTDFTLTISSLQPEDFATYYCQQYNSYPYTFGQGTKLEIK
notes: as for B1

The binders below were run against T1, hIL-4R on cells (STAT6-transfected HEK293, TF1, TF1/A12) (human, UniProt P24394 26-825) (assay: cell-based or functional assay).
T1 sequence (looked up): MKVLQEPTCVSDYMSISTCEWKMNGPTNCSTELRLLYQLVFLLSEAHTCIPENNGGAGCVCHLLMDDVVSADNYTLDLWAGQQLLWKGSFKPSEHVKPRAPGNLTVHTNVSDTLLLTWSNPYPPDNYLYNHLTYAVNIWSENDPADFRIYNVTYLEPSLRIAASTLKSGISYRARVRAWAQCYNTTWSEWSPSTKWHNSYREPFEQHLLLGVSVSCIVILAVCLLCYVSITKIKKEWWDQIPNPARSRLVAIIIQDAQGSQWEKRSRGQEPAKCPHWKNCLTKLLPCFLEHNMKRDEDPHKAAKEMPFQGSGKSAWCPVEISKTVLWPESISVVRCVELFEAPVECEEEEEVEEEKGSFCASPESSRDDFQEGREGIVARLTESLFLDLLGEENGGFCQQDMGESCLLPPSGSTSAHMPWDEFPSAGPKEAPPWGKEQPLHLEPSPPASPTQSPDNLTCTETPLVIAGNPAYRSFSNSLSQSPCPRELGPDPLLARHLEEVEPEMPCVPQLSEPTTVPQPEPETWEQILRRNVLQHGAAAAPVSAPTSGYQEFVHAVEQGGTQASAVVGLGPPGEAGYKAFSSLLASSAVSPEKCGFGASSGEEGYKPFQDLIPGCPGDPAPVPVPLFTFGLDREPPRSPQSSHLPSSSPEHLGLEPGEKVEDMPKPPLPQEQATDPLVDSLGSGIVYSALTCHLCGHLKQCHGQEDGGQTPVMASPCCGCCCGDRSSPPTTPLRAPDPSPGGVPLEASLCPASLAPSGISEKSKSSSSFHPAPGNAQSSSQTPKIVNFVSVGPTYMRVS

Binder | STAT6 Bioassay IC50 (HEK293 STAT6 luciferase, 10 pM hIL-4) | TF1/A12 Bioassay IC50 (proliferation, 20 pM hIL-4) | TF1 Bioassay IC50 (proliferation, 50 pM hIL-4)
B1 | 0.32 nM | 4.7 nM | 0.44 nM
B2 | 1.8 nM | 12.8 nM | –
B3 | 0.14 nM | 0.7 nM | 0.12 nM
B4 | > 10 nM | > 50 nM | –
B5 | 0.032 nM | 0.067 nM | 0.046 nM
B6 | 0.08 nM | – | 0.16 nM
B7 | 1.9 nM | 22.8 nM | –

Each binder was assayed against T2, mouse IL-4R (mouse, UniProt P16382 26-233, limits assumed) (assay: binding affinity test of Example 2 (method not restated)).
T2 sequence (looked up): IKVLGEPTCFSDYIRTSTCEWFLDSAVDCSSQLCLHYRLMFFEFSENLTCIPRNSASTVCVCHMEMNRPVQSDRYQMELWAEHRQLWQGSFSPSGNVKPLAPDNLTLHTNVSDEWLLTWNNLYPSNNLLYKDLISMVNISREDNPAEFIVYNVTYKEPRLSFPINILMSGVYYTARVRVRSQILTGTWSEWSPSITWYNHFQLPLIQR

Binder | binding result
B1 | no binding
B2 | no binding
B3 | no binding
B4 | no binding
B5 | no binding
B6 | no binding
B7 | no binding

The binders below were run against T3, dimeric hIL-4R-hFc (human, UniProt P24394 26-232) (assay: ELISA; antibody titrated against 25 pM hIL-4R-Fc, free receptor caught on hIL-4 plate).
T3 construct: also called hIL-4R-Fc; not shown: human Fc (hFc)
T3 sequence: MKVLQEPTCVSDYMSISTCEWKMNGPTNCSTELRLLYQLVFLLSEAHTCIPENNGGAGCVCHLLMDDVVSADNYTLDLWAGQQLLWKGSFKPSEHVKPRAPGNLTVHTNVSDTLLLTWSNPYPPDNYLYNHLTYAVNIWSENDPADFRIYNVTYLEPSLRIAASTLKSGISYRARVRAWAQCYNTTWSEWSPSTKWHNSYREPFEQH
Protocol: Concentration of free hIL-4R-Fc (no antibody bound) was determined using a hIL-4R-specific sandwich ELISA. […] After a one-hour incubation at room temperature, the detection plate was washed and plate-bound hIL-4R-hFc was detected using HRP conjugated goat anti-hFc polyclonal antibodies and developed using colorimetric substrates such as BD OptEIA™ (BD Biosciences Pharmingen, San Diego, Calif.). After the reaction was stopped with 1 M phosphoric or sulfuric acid, absorbances at 450 nm were recorded and the data were analyzed using GraphPad™ Prism software.

Binder | IC50
B1 | 0.029 nM
B2 | 0.018 nM
B3 | 0.018 nM
B4 | 0.274 nM
B5 | 0.019 nM
B6 | 0.026 nM
B7 | 0.034 nM

The binders below were run against T3, dimeric hIL-4R-hFc (assay: SPR; reduction of hIL-4 (50 nM) binding to captured hIL-4R-hFc after antibody; competitor hIL-4).
Excerpt: Purified hIL-4R-hFc molecules were captured by goat anti-human IgG polyclonal antibody immobilized on CM-5 to a density of 260 RU, to prepare a receptor-coated surface.

Binder | % Inhibition (BIAcore)
B1 | 97%
B2 | 85%
B3 | 92%
B4 | 86%
B5 | 97%
B6 | 95%
B7 | 93%

Each binder was assayed against T4, monomeric hIL-4R (R&D Systems) (human, UniProt P24394 26-231) (assay: SPR (BIAcore 2000); antibody captured, monomeric hIL-4R injected).
T4 construct: Bought (R&D Systems); also called hIL-4R monomer
T4 sequence: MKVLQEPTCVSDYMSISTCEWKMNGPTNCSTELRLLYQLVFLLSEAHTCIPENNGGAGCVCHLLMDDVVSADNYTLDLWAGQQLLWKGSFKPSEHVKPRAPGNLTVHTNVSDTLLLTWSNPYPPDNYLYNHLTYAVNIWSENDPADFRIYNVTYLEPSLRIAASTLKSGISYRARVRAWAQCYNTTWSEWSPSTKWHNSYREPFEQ
Protocol: (§1) Binding affinity (KD) of selected antibodies with respect to hIL-4R was determined using a real-time biosensor surface plasmon resonance assay (BIAcore™ 2000). Briefly, antibody was captured on a goat anti-mouse (GAM) IgG polyclonal antibody surface created through direct chemical coupling of the GAM IgG to a BIAcore™ chip to form a captured antibody surface. […] Binding of antigen to antibody and dissociation of the bound complex, were monitored in real time. Equilibrium dissociation constants (KD) and dissociation rate constants were ascertained by performing kinetic analysis using BIA evaluation software. BIA evaluation software was also used to calculate the half-life of antigen/antibody complex dissociation (T_{1/2}). […] The binding affinity of anti-hIL-4R antibodies to either mouse or monkey (Macaca fascicularis) IL-4R was also tested.

Binder | Kd | T1/2 monomeric
B1 | 0.82 nM | 0.25 h
B2 | 11.4 nM | 0.0333 h
B3 | 0.93 nM | 0.25 h
B4 | 3.91 nM | 0.267 h
B5 | 0.02 nM | 4.23 h
B6 | 0.03 nM | 14 h
B7 | 4.47 nM | 0.1 h

Target: T1, hIL-4R on cells (STAT6-transfected …)
Assay: cell-based or functional assay
Remark: another data set of the same source

Binder | STAT6 Bioassay IC50 (HEK293 STAT6 luciferase, 40 pM hIL-13) | TF1 Bioassay IC50 (proliferation, 150 pM hIL-13)
B1 | 0.2 nM | 2.6 nM
B2 | 0.97 nM | –
B3 | 0.09 nM | 0.44 nM
B4 | > 10 nM | –
B5 | 0.018 nM | 0.079 nM
B6 | 0.06 nM | 0.42 nM
B7 | 1 nM | –

These binders were tested against T3, dimeric hIL-4R-hFc (assay: SPR (BIAcore 2000); antibody captured, dimeric hIL-4R-hFc injected).
Protocol: as §1

Binder | Kd | T1/2 dimeric
B1 | 0.045 nM | 3.6 h
B2 | 0.052 nM | 2 h
B3 | 0.038 nM | 7.3 h
B4 | 0.654 nM | 2.7 h
B5 | 0.003 nM | 41 h
B6 | 0.002 nM | 63 h
B7 | 0.051 nM | 6.7 h
